For experiment [1], the target named is human 4-1BB on the surface of HEK293-Hu4-1BB cells (human) (UniProt Q07011). The experiment can be described thus: flow cytometry on HEK293-Hu4-1BB cells, isotype control.
Experiment [2] has the same target. The description is as above. The source holds these as a separate data set.
Experiment [3] has the same target. Nature of the experiment: cell-based or functional assay.
Experiment [4] addresses human CLDN18.2 on cells (NUGC4-hi18.2 cells; SNU601 cells in the ADCC assay) (human) (UniProt P56856). The experiment can be described thus: flow cytometry on NUGC4-hi18.2 cells, isotype control.
For experiment [5] the target is unchanged. Nature of the experiment: cell-based or functional assay.
For experiment [6], the target named is human 4-1BB on the surface of HEK293-Hu4-1BB cells (human) (UniProt Q07011). The experiment can be described thus: cell-based or functional assay. The source holds these as a separate data set.
The target is the same in experiment [7]. The experiment can be described thus: flow cytometry on HEK293-Hu4-1BB cells, isotype control. This is another data set of the same source.
Experiment [8] addresses human CD16A-V176 on CHO / CHO-K1 cells (human) (UniProt P08637). Nature of the experiment: flow cytometry on CHO-K1-CD16A V176 cells, isotype control.
Experiment [9] concerns the target human CLDN18.2 on cells (NUGC4-hi18.2 cells; SNU601 cells in the ADCC assay) (human) (UniProt P56856). The experiment can be described thus: flow cytometry on NUGC4-hi18.2 cells.
Experiment [10] has as its target human CD16A-V176 on CHO / CHO-K1 cells (human) (UniProt P08637). The experiment can be described thus: flow cytometry on CHO-K1-CD16A V176 cells.

Read-outs that look alike come from different tables or passages of the source.

Sequence of human CD16A-V176 on CHO / CHO-K1 cells (human) (P08637 17-254 F176V): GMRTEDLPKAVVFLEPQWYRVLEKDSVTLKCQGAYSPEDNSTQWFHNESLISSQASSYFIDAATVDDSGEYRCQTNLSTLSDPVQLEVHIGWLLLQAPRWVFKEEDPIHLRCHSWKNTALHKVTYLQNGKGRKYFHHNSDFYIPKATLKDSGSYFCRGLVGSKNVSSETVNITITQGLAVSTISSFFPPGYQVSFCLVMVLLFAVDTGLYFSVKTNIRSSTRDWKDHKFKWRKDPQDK
Sequence of human 4-1BB on the surface of HEK293-Hu4-1BB cells (human) (Q07011 24-255): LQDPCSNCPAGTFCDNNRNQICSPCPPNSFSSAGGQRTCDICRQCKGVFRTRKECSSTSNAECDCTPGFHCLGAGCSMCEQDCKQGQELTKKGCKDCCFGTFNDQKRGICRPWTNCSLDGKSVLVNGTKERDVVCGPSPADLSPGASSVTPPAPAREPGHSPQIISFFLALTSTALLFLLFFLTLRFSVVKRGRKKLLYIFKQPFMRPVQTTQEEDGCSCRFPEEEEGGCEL

The substance isotype IgG1 antibody (control) displayed a Maximal fluorescence value in experiment [1] of 123. Also, the Maximal fluorescence value in [2] came out at 106. In experiment [3], this substance had a Fold change in Emax, 4-1BB/NF-κB luciferase reporter, CLDN18.2 cross-linking of 1.15 fold and a Fold change in Emax, 4-1BB/NF-κB luciferase reporter, no cross-linking of 1.17 fold. The Maximal fluorescence value in experiment [4] is 107. Also, in [5], the ADCC maximum killing rate, NUGC4-hi18.2 target cells, PBMC donor S2001102 (V176) was determined as 21.8%; the ADCC maximum killing rate, NUGC4-hi18.2 target cells, PBMC donor SC190061 (F176) worked out at 10.7%; the ADCC maximum killing rate, SNU601 target cells, PBMC donor S2001102 (V176) amounted to 22.7%; the ADCC maximum killing rate, SNU601 target cells, PBMC donor SC190061 (F176) is 11.4%. The ADCP maximum phagocytosis rate, macrophages against NUGC4-hi18.2 cells in [5] was determined as 19.8%. Besides, in experiment [6], the Emax, 4-1BB/NF-κB luciferase reporter, FcγRIIb cross-linking (relative to the antibody-free group) worked out at 1.12; the Emax, 4-1BB/NF-κB luciferase reporter, no FcγRIIb cross-linking (relative to the antibody-free group) came out at 1.1; the Fold change in Emax, 4-1BB/NF-κB luciferase reporter, CLDN18.2 cross-linking was determined as 1.17 fold; the Fold change in Emax, 4-1BB/NF-κB luciferase reporter, no CLDN18.2 cross-linking worked out at 1.16 fold. In [7], this substance displayed a Maximal fluorescence value of 67. Besides, the Maximal fluorescence value in experiment [8] was determined as 1590.
As for TJ-CD4B (bispecific antibody), in experiment [9], the EC50 was determined as 16.2 nM and the Maximal fluorescence value worked out at 89300. In experiment [10], this substance gave a Maximal fluorescence value of 113.
In experiment [3], ADG106 (antibody) came in with a Fold change in Emax, 4-1BB/NF-κB luciferase reporter, CLDN18.2 cross-linking of 1.42 fold and a Fold change in Emax, 4-1BB/NF-κB luciferase reporter, no cross-linking of 1.13 fold.
As for IMAB362 (antibody), in [10], the EC50 came out at 14.8 nM and the Maximal fluorescence value came out at 3390.

Source of the values: patent EP4628507A1.
